Source: US9766245B2, “Method of detecting cancer based on glycan biomarkers” (California Institute of Technology, priority 2013, dated 2017)

Key:
BgtA [1] = target: T1, BgtA (Helicobacter mustelae, UniProt D3UIY4); test: Kinetic analysis of BgtA with UDP-GalNAz and UDP-GalNAc; format: biochemical; conditions: 100 μM acceptor 1
Protocol: (§1) Kinetic Analysis of BgtA with UDP-GalNAz and UDP-GalNAc.
(§2) Reactions were performed in duplicate with 100 μM acceptor substrate (1), 0.7 μg BgtA, and varying concentrations of UDP-GalNAz or UDP-GalNAc (50 to 800 μM) in 20 mM Tris-HCl pH 7.5, 50 mM NaCl, 10 mM MnCl2 at rt in a total volume of 20 μL. Product formation was monitored at 280 nm by reverse phase-HPLC (Agilent 1100), and time points were taken over the course of 5 min using a linear, 3-95% gradient of B (A: 0.1% aqueous trifluoroacetic acid B: 0.1% trifluoroacetic acid in MeCN) over 8 min with a flow rate of 1 mL/min. The kinetic parameters, apparent Km, Vmax, and kcat, were obtained by linear regression analysis of initial velocity vs. donor substrate concentration using KaleidaGraph (version 4.1.2).

BgtA [2] = target: T1, BgtA; test: BgtA activity assay monitored by LC-MS/MS; format: biochemical; conditions: donor substrate, 12 h at 4° C.
Protocol: BgtA Activity Assay and Monitoring of Chemoenzymatic Labeling Reactions by LC-MS/MS.
The Fucα(1-2)Gal substrate 1 (10 μM) was dissolved in 20 mM Tris.HCl pH 7.5, 50 mM NaCl, and 5 mM MnCl2. BgtA enzyme (Yi, W.; Shen, J.; Zhou, G.; Li, J.; Wang, P. G. J. Am. Chem. Soc. 2008, 130, 14420.) and UDP-ketoGal 3 (Khidekel, N.; Arndt, S.; Lamarre-Vincent, N.; Lippert, A.; Poulin-Kerstien, K. G.; Ramakrishnan, B.; Qasba, P. K.; Hsieh-Wilson, L. C. J. Am. Chem. Soc. 2003, 125, 16162.) or UDP-GalNAz 2 (Invitrogen) were added to final concentrations of 0.16 mg/mL and 50 μM, respectively, in a final volume of 100 μL. The reaction was incubated at 4° C. in the dark for 12-16 h, and the reaction progress was monitored by LC-MS/MS. To label with aminooxy-biotin 7, the reactions were diluted 5-fold with saturated urea, 2.7 M NaOAc pH 3.9 (50 mM final concentration and pH 4.8), and 7 (5 mM final concentration, Dojindo) and incubated for 20-24 h at rt. To label with ADIBO-biotin 6, 250 μM of 6 (Click Chemistry Tools) was added, and the reaction was incubated for 3 h at rt. […]

[3] = system: CC(=O)N[C@H]1[C@@H](OP(=O)(O)OP(=O)(O)OC[C@H]2O[C@@H](n3ccc(=O)[nH]c3=O)[C@H](O)[C@@H]2O)O[C@H](CO)[C@H](O)[C@@H]1O; test: Kinetic analysis of BgtA with UDP-GalNAz and UDP-GalNAc; format: biochemical, Helicobacter mustelae; conditions: other: donor substrate, 100 μM acceptor 1, donor 50 to 800 μM, rt; pH 7.5
Protocol: as §1, §2

[4] = system: [N-]=[N+]=NCC(=O)N[C@H]1[C@@H](OP(=O)(O)OP(=O)(O)OC[C@H]2O[C@@H](n3ccc(=O)[nH]c3=O)[C@H](O)[C@@H]2O)O[C@H](CO)[C@H](O)[C@@H]1O; test: as above; format: biochemical, Helicobacter mustelae; conditions: other: donor substrate, 100 μM acceptor 1, donor 50 to 800 μM, rt; pH 7.5
Protocol: as §1, §2

BgtA [5] = target: T1, BgtA; test: Chemoenzymatic labeling of cell lysates, streptavidin capture and Western blotting; format: biochemical; conditions: rat brain (olfactory bulb) lysates, BgtA + UDP-GalNAz, alkyne-biotin 11, streptavidin capture, immunoblot; in the presence but not absence of BgtA
BgtA [6] = target: T1, BgtA; test: BgtA labeling of Galβ(1-4)GlcNAc-pNP in solution; format: biochemical; conditions: 2 h, 25° C.
BgtA [7] = target: T1, BgtA; test: Chemoenzymatic labeling on the glycan array; format: biochemical; conditions: 0.5, 2 and 12 h, rt; ADIBO-biotin, Cy5-streptavidin; labeled if 12 h signal minus background >1000 relative fluorescence units
Protocol: Chemoenzymatic Labeling on the Glycan Array.
Glycan Array version 5.0 was provided by the Consortium for Functional Glycomics (CFG). Pre-equilibrated arrays were treated with BgtA enzyme (0.16 mg/mL) and 500 μM UDP-GalNAz 2 in 20 mM Tris.HCl pH 7.4, 50 mM NaCl, 2 mM MnCl2 containing 1% bovine serum albumin (BSA) for various times (0, 0.5, 2, and 12 h) at rt, washed 4 times with wash buffer (20 mM Tris.HCl pH 7.4, 50 mM NaCl, 0.1% Triton X-100) and then 4 times with rinse buffer (20 mM Tris.HCl pH 7.4, 50 mM NaCl). The arrays were then incubated with ADIBO-biotin (5 μM) in 20 mM Tris.HCl pH 7.4, 50 mM NaCl for 2 h at rt. […] The arrays were then washed 4 times with wash buffer (containing 0.05% Tween-20 instead of 0.1% Triton X-100), 4 times with rinse buffer, 4 times with water, dried under a low stream of filtered air, and scanned using a PerkinElmer ScanArray Express fluorescence scanner and ImaGene data analysis software (BioDiscovery). Data were analyzed per the guidelines of the CFG. […] Because background fluorescence can be heterogeneous across the array, each array was divided into areas of 10 by 10 spots, or sub-arrays, and a background fluorescence value was calculated within each sub-array by the software. This value was then subtracted from the fluorescence signal for each glycan spot within the sub-array by the software. […]

[N-]=[N+]=NCC(=O)N[C@H]1[C@@H](OP(=O)(O)OP(=O)(O)OC[C@H]2O[C@@H](n3ccc(=O)[nH]c3=O)[C@H](O)[C@@H]2O)O[C@H](CO)[C@H](O)[C@@H]1O [UDP-GalNAz, UDP-N-azidoacetylgalactosamine]
kcat/Km fold lower than natural UDP-GalNAc substrate (BgtA [1]): approximately 7 fold
conversion of substrate 1 to the desired product with BgtA (BgtA [2]): complete conversion

UDP-2-deoxy-2-(acetonyl)-β-D-galactopyranoside [UDP-ketoGal]
conversion of substrate 1 to the desired product with BgtA (BgtA [2]): complete conversion

BgtA (Helicobacter mustelae 12198)
Km [3]: 127 ± 36 µM
Vmax [3]: 0.100 ± 0.010 nmol/min
Km [4]: 168 ± 55 µM
Vmax [4]: 0.020 ± 0.002 nmol/min

synapsin I: known Fucα(1-2)Gal glycoprotein in rat brain lysate
chemoenzymatic labeling and detection of glycoprotein (BgtA [5]): chemoenzymatically labeled and detected

CC(=O)N[C@H]1[C@@H](OP(=O)(O)OP(=O)(O)OC[C@H]2O[C@@H](n3ccc(=O)[nH]c3=O)[C@H](O)[C@@H]2O)O[C@H](CO)[C@H](O)[C@@H]1O [UDP-GalNAc]
Vmax fold higher than that of UDP-GalNAz (BgtA [1]): approximately 5 fold

CC(=O)N[C@H]1[C@H](Oc2ccc([N+](=O)[O-])cc2)O[C@H](CO)[C@@H](O[C@@H]2O[C@H](CO)[C@H](O)[C@H](O)[C@H]2O)[C@@H]1O [Galβ(1-4)GlcNAc-pNP, p-nitrophenyl 2-acetamido-2-deoxy-4-O-(β-D-galactopyranosyl)-β-D-glucopyranoside]
labeling by BgtA in solution (BgtA [6]): failed to label

CC(=O)N[C@@H]1[C@@H](O[C@@H]2O[C@H](CO)[C@H](O)[C@H](O)[C@H]2O[C@@H]2O[C@@H](C)[C@@H](O)[C@@H](O)[C@@H]2O)[C@H](O[C@@H]2O[C@@H](C)[C@@H](O)[C@@H](O)[C@@H]2O)[C@@H](CO)O[C@H]1O [Glycan 61]
labeling of glycan by BgtA and UDP-GalNAz on microarray (BgtA [7]): weak labeling

B1: p44 MAPK: a protein that has not been shown to be fucosylated (protein, UniProt P21708 2-380, looked up)
Mitogen-activated protein …: AAAAAAPGGGGGEPRGTAGVVPVVPGEVEVVKGQPFDVGPRYTQLQYIGEGAYGMVSSAYDHVRKTRVAIKKISPFEHQTYCQRTLREIQILLRFRHENVIGIRDILRAPTLEAMRDVYIVQDLMETDLYKLLKSQQLSNDHICYFLYQILRGLKYIHSANVLHRDLKPSNLLINTTCDLKICDFGLARIADPEHDHTGFLTEYVATRWYRAPEIMLNSKGYTKSIDIWSVGCILAEMLSNRPIFPGKHYLDQLNHILGILGSPSQEDLNCIINMKARNYLQSLPSKTKVAWAKLFPKSDSKALDLLDRMLTFNPNKRITVEEALAHPYLEQYYDPTDEPVAEEPFTFDMELDDLPKERLKELIFQETARFQPGAPEAP
chemoenzymatic labeling and detection of glycoprotein (BgtA [5]): not detected

B2: NCAM: known Fucα(1-2)Gal glycoprotein in rat brain lysate (protein, UniProt P13596 20-858, looked up)
Neural cell adhesion molecule …: LQVDIVPSQGEISVGESKFFLCQVAGDAKDKDISWFSPNGEKLSPNQQRISVVWNDDDSSTLTIYNANIDDAGIYKCVVTAEDGTQSEATVNVKIFQKLMFKNAPTPQEFKEGEDAVIVCDVVSSLPPTIIWKHKGRDVILKKDVRFIVLSNNYLQIRGIKKTDEGTYRCEGRILARGEINFKDIQVIVNVPPTVQARQSIVNATANLGQSVTLVCDADGFPEPTMSWTKDGEPIENEEEDDEKHIFSDDSSELTIRNVDKNDEAEYVCIAENKAGEQDASIHLKVFAKPKITYVENQTAMELEEQVTLTCEASGDPIPSITWRTSTRNISSEEKASWTRPEKQETLDGHMVVRSHARVSSLTLKSIQYTDAGEYICTASNTIGQDSQSMYLEVQYAPKLQGPVAVYTWEGNQVNITCEVFAYPSATISWFRDGQLLPSSNYSNIKIYNTPSASYLEVTPDSENDFGNYNCTAVNRIGQESLEFILVQADTPSSPSIDRVEPYSSTAQVQFDEPEATGGVPILKYKAEWKSLGEEAWHSKWYDAKEANMEGIVTIMGLKPETRYAVRLAALNGKGLGEISAATEFKTQPVREPSAPKLEGQMGEDGNSIKVNLIKQDDGGSPIRHYLVKYRALASEWKPEIRLPSGSDHVMLKSLDWNAEYEVYVVAENQQGKSKAAHFVFRTSAQPTAIPANGSPTAGLSTGAIVGILIVIFVLLLVVMDITCYFLNKCGLLMCIAVNLCGKAGPGAKGKDMEEGKAAFSKDESKEPIVEVRTEEERTPNHDGGKHTEPNETTPLTEPEKGPVETKSEPQESEAKPAPTEVKTVPNEATQTKENESKA
chemoenzymatic labeling and detection of glycoprotein (BgtA [5]): chemoenzymatically labeled and detected
